From PMC4490372, “Architecture of TFIIIC and its role in RNA polymerase III pre-initiation complex assembly” (Nature Communications, 2015)
Numbering of substitutions follows the chain as printed. One block for each binder: values may come before it.

Key:
[1] = biological target: T1, τ95 (Tfc1), τA subunit of endogenous S. cerevisiae TFIIIC (S. cerevisiae, UniProt P32367 1-649); test: cross-linking; XL-MS: purified endogenous TFIIIC (30 μg, 1 μg/μl) cross-linked with H12/D12 DSS to 2 mM, 40 min at 37 °C; ld-score >25; conditions: both partners purified
T1 construct: τ95 (Tfc1), subunit of S. cerevisiae TFIIIC, endogenous subunit in the purified complex; source: endogenous, purified from S. cerevisiae strain SC2342 as part of TFIIIC (TAP tag on τ60)
T1 sequence (looked up): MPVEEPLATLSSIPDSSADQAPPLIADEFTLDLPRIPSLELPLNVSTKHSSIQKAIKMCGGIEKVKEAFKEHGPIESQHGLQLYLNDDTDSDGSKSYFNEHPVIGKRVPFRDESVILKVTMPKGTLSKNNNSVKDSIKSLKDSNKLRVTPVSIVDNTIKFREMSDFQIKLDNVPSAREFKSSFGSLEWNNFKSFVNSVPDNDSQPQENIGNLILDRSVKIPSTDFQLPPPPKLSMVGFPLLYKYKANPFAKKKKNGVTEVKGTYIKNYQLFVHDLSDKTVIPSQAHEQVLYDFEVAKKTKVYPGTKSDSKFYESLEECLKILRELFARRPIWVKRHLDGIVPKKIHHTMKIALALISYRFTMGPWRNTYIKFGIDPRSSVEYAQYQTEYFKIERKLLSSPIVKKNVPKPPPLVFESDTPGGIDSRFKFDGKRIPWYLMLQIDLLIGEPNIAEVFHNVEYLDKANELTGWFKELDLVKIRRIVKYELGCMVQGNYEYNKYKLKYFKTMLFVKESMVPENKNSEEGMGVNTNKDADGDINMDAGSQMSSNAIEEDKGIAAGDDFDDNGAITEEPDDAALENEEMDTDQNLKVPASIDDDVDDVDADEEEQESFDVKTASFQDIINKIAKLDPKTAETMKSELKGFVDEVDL

τ131 (123–566) E472K [2] = biological target: T2, τ131 (123–566) E472K (S. cerevisiae, UniProt P33339 123-566, E472K); test: pull-down; 15 μg GST-τ138 (641–693) on Glutathione Sepharose 4B; 900 nM wild-type or mutant τ131; 50 mM Tris pH 7.5, 150 mM NaCl, 2 mM DTT, 0.1% Tween20; 4 °C, 4 h; conditions: both partners purified
T2 construct: source: E. coli, purified by the same method as the wild type; not shown: His6, N-terminal, cleaved
T2 sequence (looked up): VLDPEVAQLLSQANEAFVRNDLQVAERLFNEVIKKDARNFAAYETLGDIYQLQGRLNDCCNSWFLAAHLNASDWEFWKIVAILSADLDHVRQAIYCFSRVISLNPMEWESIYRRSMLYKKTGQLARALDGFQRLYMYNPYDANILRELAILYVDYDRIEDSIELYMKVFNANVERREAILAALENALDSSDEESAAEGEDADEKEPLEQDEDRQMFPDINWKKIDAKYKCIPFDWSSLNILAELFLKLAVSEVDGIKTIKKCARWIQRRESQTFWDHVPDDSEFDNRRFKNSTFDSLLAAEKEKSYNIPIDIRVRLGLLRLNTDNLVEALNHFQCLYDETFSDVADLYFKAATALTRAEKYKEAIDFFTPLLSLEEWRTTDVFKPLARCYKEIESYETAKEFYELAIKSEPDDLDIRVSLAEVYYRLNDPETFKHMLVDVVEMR

τ131 (123–566) E497K [3] = biological target: T3, τ131 (123–566) E497K (S. cerevisiae, UniProt P33339 123-566, E497K); test: as above; conditions: both partners purified
T3 construct: source: E. coli, purified by the same method as the wild type; not shown: His6, N-terminal, cleaved
T3 sequence (looked up): T2 sequence (looked up) with K350E, E375K

τ131 (123–566) E498K [4] = biological target: T4, τ131 (123–566) E498K (S. cerevisiae, UniProt P33339 123-566, E498K); test: as above; conditions: both partners purified
T4 construct: source: E. coli, purified by the same method as the wild type; not shown: His6, N-terminal, cleaved
T4 sequence (looked up): T2 sequence (looked up) with K350E, E376K

τ131 (123–566) E472K [5] = biological target: T5, τ131 (123–566) E472K (S. cerevisiae, UniProt P33339 123-566, E472K); test: ITC
T5 sequence: T2 sequence (looked up)

τ131 (123–566) E498K [6] = biological target: T6, τ131 (123–566) E498K (S. cerevisiae, UniProt P33339 123-566, E498K); test: ITC
T6 sequence: T2 sequence (looked up) with K350E, E376K

τ131 (123–566) E497K [7] = biological target: T7, τ131 (123–566) E497K (S. cerevisiae, UniProt P33339 123-566, E497K); test: ITC
T7 sequence: T2 sequence (looked up) with K350E, E375K

τ131 (123–566) E472K [8] = biological target: T2, τ131 (123–566) E472K; test: ITC; MicroCal ITC200; 15 μM τ138 in the cell, 150 μM τ131 in the syringe; 20 mM Tris pH 7.5, 150 mM NaCl, 2 mM β-mercaptoethanol; 25 °C; conditions: both partners purified
τ131 (123–566) E497K [9] = biological target: T3, τ131 (123–566) E497K; test: as above; conditions: both partners purified
τ131 (123–566) E498K [10] = biological target: T4, τ131 (123–566) E498K; test: as above; conditions: both partners purified
[11] = biological target: T8, τ131 (123–566), TPR array, wild type (S. cerevisiae, UniProt P33339 123-566); test: as above; conditions: both partners purified
T8 construct: also called τ131 TPR array; source: E. coli BL21 Star (DE3) pRARE, purified (Ni-NTA, TEV cleavage, S200 SEC); not shown: His6, N-terminal, cleaved
T8 sequence (looked up): T2 sequence (looked up) with K350E

[12] = biological target: T9, GST-tagged τ131 (123–566) E472K (S. cerevisiae, UniProt P33339 123-566, E472K); test: pull-down; 15 μg GST-tagged τ131 on Glutathione Sepharose 4B; 300 nM τ138 or Bdp1, or 1 μM Brf1–TBP; 50 mM Tris pH 7.5, 150 mM NaCl, 2 mM DTT, 0.1% Tween20; 4 °C, 4 h; conditions: both partners purified
T9 construct: source: E. coli BL21 (DE3) Gold, purified (GST column, S200 SEC)
T9 sequence (looked up): T2 sequence (looked up)

[13] = biological target: T10, GST-tagged τ131 (123–566) E497K (S. cerevisiae, UniProt P33339 123-566, E497K); test: as above; conditions: both partners purified
T10 construct: source: E. coli BL21 (DE3) Gold, purified (GST column, S200 SEC)
T10 sequence (looked up): T2 sequence (looked up) with K350E, E375K

[14] = biological target: T11, GST-tagged τ131 (123–566) E498K (S. cerevisiae, UniProt P33339 123-566, E498K); test: as above; conditions: both partners purified
T11 construct: source: E. coli BL21 (DE3) Gold, purified (GST column, S200 SEC)
T11 sequence (looked up): T2 sequence (looked up) with K350E, E376K

- binding result [1]: binds
B1: τ55 (Tfc7), τA subunit of endogenous S. cerevisiae TFIIIC (natural protein, UniProt Q12415 1-435, looked up)
chain: MVVNTIYIARHGYRSNWLPEGPYPDPLTGIDSDVPLAEHGVQQAKELAHYLLSLDNQPEAAFASPFYRCLETVQPIAKLLEIPVYLERGIGEWYRPDRKPVIPVPAGYEILSKFFPGVISQEWDSTLTPNEKGETEQEMYMRFKKFWPLFIERVEKEYPNVECILLVTHAASKIALGMSLLGYDNPRMSLNENGDKIRSGSCSLDKYEILKKSYDTIDETDDQTSFTYIPFSDRKWVLTMNGNTEFLSSGEEMNWNFDCVAEAGSDADIKKRQMTKKTSSPIPEADDQTEVETVYISVDIPSGNYKERTEIAKSAILQYSGLETDAPLFRIGNRLYEGSWERLVGTELAFPNAAHVHKKTAGLLSPTEENETTNAGQSKGSSTANDPNIQIQEEDVGLPDSTNTSRDHTGDKEEVQSEKIYRIKERIVLSNVRPM
notes: τ55 (Tfc7), subunit of S. cerevisiae TFIIIC, endogenous subunit in the purified complex; source: endogenous, purified from S. cerevisiae strain SC2342 as part of TFIIIC (TAP tag on τ60)

- binding result (τ131 (123–566) E472K [2]): binds
- binding result (τ131 (123–566) E497K [3]): binds
- binding result (τ131 (123–566) E498K [4]): binds
B2: GST-τ138 (641–693) (domain or fragment, S. cerevisiae, UniProt P34111 641-693, looked up)
chain: SKKATFTDVIHDTEIYFFDQTEKNRFHRGKKSVERIRKFQNRQKNAKIKASDD
notes: also called GST-tagged τ138; source: E. coli BL21 (DE3) Gold, purified (GST column, S200 SEC)

- Kd (τ131 (123–566) E472K [5]): 415 nM
- Kd (τ131 (123–566) E498K [6]): 971 nM
- Kd (τ131 (123–566) E497K [7]): 99 nM
- binding result (τ131 (123–566) E472K [8]): binds
- binding result (τ131 (123–566) E497K [9]): binds
- binding result (τ131 (123–566) E498K [10]): binds
- Kd [11]: ~100 nM
- binding result [12]: binds
- binding result [13]: binds
- binding result [14]: binds
B3: τ138 (546–693), eWH-τIR (domain or fragment, S. cerevisiae, UniProt P34111 546-693, looked up)
chain: SARSLRSLQRQRAILKVMNTIGGVAYLREQFYESVSKYMGSTTTLDKKTVRGDVDLMVESEKLGARTEPVSGRKIIFLPTVGEDAIQRYILKEKDSKKATFTDVIHDTEIYFFDQTEKNRFHRGKKSVERIRKFQNRQKNAKIKASDD
notes: the cloning of this construct is not described; also called τ138 (eWH-τIR); central region of τ138; source: purified; expression of this construct not described
